According to the supplement of paper PMC7125110:
± gives the standard error. Fewer inactive variants are shown than the library holds.

B1: glmS ribozyme (parent)
chain: AUAAAAGCGCCAGAACUACAGAAAUGUAGUUGACGAGGAGGAGGUUUAUCGAAUUUUCGGCGGAUGCCUCCAAA

How the values were obtained:
Conditions in all cases: with glucosamine-6-phosphate
[1] = variants of: B1; assay: self-cleavage kobs at 40 uM GlcN6P; higher = faster cleavage; RNA array
Procedure, shortened: (§1)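 Glucosamine-6-phosphate in HEPES/KCl/Mg(OAc)2 buffer, at 40 μM to 10 mM, was flowed over barcoded ribozyme variants transcribed in situ by E. coli RNA polymerase on sequenced MiSeq chips. Tracking was through a hybridised Cy3 probe at 37 °C. kobs, kcat and KM came from exponential decay fits and weighted Michaelis–Menten fits of normalised per-tile medians.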

[2] = variants of: B1; assay: self-cleavage kobs at 160 uM GlcN6P; higher = faster cleavage; RNA array
Procedure, shortened: as §1

[3] = variants of: B1; assay: self-cleavage kobs at 640 uM GlcN6P; higher = faster cleavage; RNA array
Procedure, shortened: as §1

[4] = variants of: B1; assay: self-cleavage kobs at 10000 uM GlcN6P; higher = faster cleavage; RNA array
Procedure, shortened: as §1

[5] = variants of: B1; assay: self-cleavage kobs at 2500 uM GlcN6P; higher = faster cleavage; RNA array
Procedure, shortened: as §1

Row | Variant | self-cleavage kobs at 40 uM GlcN6P [1] [s⁻¹] | self-cleavage kobs at 160 uM GlcN6P [2] [s⁻¹] | self-cleavage kobs at 640 uM GlcN6P [3] [s⁻¹] | self-cleavage kobs at 10000 uM GlcN6P [4] [s⁻¹] | self-cleavage kobs at 2500 uM GlcN6P [5] [s⁻¹]
1 | A14C G59C | < 1e-05 | < 1e-05 | < 1e-05 | < 1e-05 | –
2 | A12G G37C U46C A53G C68U | < 1e-05 | – | – | < 1e-05 | –
3 | A15G A53G | 0.00127 ± 0.00016 | 0.00183 ± 0.00039 | 0.0109 ± 0.0017 | 0.0345 ± 0.008 | 0.022 ± 0.0053
4 | A14C G29A C61G | < 1e-05 | – | – | < 1e-05 | –
5 | A15C G32C A64U C67A | < 1e-05 | – | – | – | –
6 | G13C G40U | < 1e-05 | < 1e-05 | < 1e-05 | – | –
7 | A14G A42G | 0.0027 ± 0.00037 | 0.00391 ± 0.0011 | 0.00956 ± 0.0029 | 0.0773 ± 0.025 | 0.0467 ± 0.022
8 | A14G A53U C71G | 0.000153 ± 2.4e-05 | – | 0.000741 ± 0.00014 | – | 0.00038 ± 0.0001
9 | A14G A39C G66A | 9.51e-05 ± 2.2e-05 | – | – | 0.00527 ± 0.0016 | 0.00447 ± 0.00085
10 | G13A C16G U65G | < 1e-05 | – | – | 3.8e-05 ± 1.6e-05 | –
11 | G13A A42G A48U | < 1e-05 | – | – | < 1e-05 | –
12 | G13C G35C | < 1e-05 | < 1e-05 | – | < 1e-05 | < 1e-05
13 | A12U U47C G60A | < 1e-05 | – | – | < 1e-05 | –
14 | A14G G62U | < 1e-05 | – | – | < 1e-05 | < 1e-05
15 | G13U G59U | < 1e-05 | < 1e-05 | < 1e-05 | < 1e-05 | –
16 | A15C C16G G41A | < 1e-05 | – | – | – | –
17 | A12G G44C C67G | < 1e-05 | – | – | 0.000225 ± 4.3e-05 | –
18 | A14G G51C | < 1e-05 | – | < 1e-05 | < 1e-05 | –
19 | A15C G32U A33C | < 1e-05 | < 1e-05 | < 1e-05 | < 1e-05 | < 1e-05
20 | A12U G32A A33U | < 1e-05 | – | < 1e-05 | – | –
21 | A14U C16U | 0.00025 ± 3.2e-05 | 0.000555 ± 0.00011 | 0.00297 ± 0.00042 | 0.00789 ± 0.001 | 0.00183 ± 0.0004
22 | G13A G41C | < 1e-05 | – | < 1e-05 | – | –

Row | Variant | self-cleavage kobs at 40 uM GlcN6P [1] [s⁻¹] | self-cleavage kobs at 160 uM GlcN6P [2] [s⁻¹] | self-cleavage kobs at 640 uM GlcN6P [3] [s⁻¹] | self-cleavage kobs at 10000 uM GlcN6P [4] [s⁻¹] | self-cleavage kobs at 2500 uM GlcN6P [5] [s⁻¹]
23 | A12U A64G | 0.000953 ± 0.00018 | 0.0025 ± 0.00063 | 0.00536 ± 0.0011 | 0.052 ± 0.015 | 0.0169 ± 0.0043
24 | G13U C16U C19A G40U | < 1e-05 | < 1e-05 | < 1e-05 | < 1e-05 | –
25 | G13A U47C C58U C71U | < 1e-05 | – | – | 6.08e-05 ± 1.3e-05 | –
26 | A14G A15C G41U C58U | < 1e-05 | – | – | < 1e-05 | –
27 | A12U A15U C16A G41A G66A | < 1e-05 | – | – | – | –
28 | A15C U30G | 0.00258 ± 0.00062 | 0.00591 ± 0.0015 | 0.0305 ± 0.0089 | 0.153 ± 0.058 | 0.0288 ± 0.011
29 | A12C U57A G62A | < 1e-05 | – | – | – | –
30 | A14C C68G U69A | < 1e-05 | – | – | – | –
31 | A14G G44U A64U | < 1e-05 | – | < 1e-05 | – | < 1e-05
32 | A14G C70G | 9.61e-05 ± 1.2e-05 | 0.000203 ± 1.9e-05 | 0.000614 ± 0.00013 | – | 0.0009 ± 0.00022
33 | A12C G41U | 5.28e-05 ± 7e-06 | 7.73e-05 ± 8.9e-06 | 0.00028 ± 6.1e-05 | 0.00129 ± 0.00013 | 0.00034 ± 6.3e-05
34 | A14U G62A | < 1e-05 | – | < 1e-05 | < 1e-05 | < 1e-05
35 | A14U A15G A53G | 0.000126 ± 2.3e-05 | – | – | 0.0102 ± 0.0019 | –
36 | A12G G62A | < 1e-05 | – | < 1e-05 | < 1e-05 | –
37 | A12G G62U | < 1e-05 | – | < 1e-05 | – | –
38 | A12G G35U C50U | < 1e-05 | – | – | – | –
39 | G13C G63U | < 1e-05 | – | – | – | < 1e-05
40 | G13C G63A | < 1e-05 | – | < 1e-05 | – | < 1e-05
41 | G13U U31A A39C C68U U69A | < 1e-05 | < 1e-05 | < 1e-05 | – | –
42 | A12U U30G G51C | < 1e-05 | – | < 1e-05 | – | < 1e-05
43 | G13C C16U G63A | < 1e-05 | – | – | – | –
44 | G13A G62A | < 1e-05 | < 1e-05 | < 1e-05 | < 1e-05 | < 1e-05
